The values that follow come from patent US20040146964A1 (ISIS INNOVATION, published 2004).

Where no end group is shown, it is not given here. [ ]: non-standard residue; d: D form. Hyp = O=C(O)[C@@H]1C[C@@H](O)CN1

Test [1] addresses T1, VHL E3 ubiquitin ligase complex containing HA tagged human pVHL (human, UniProt P40337 1-213).
T1 construct: also called VHL E3 ligase; 786-0/VHL cell extract
Description: VHL E3 interaction assay with 35S-labelled IVTT product.

The target in test [2] is T2, mutant (Pro86His) pVHL (human, UniProt P40337 1-213).
T2 construct: also called mutant pVHL
T2 sequence (P40337 whole entry P86H): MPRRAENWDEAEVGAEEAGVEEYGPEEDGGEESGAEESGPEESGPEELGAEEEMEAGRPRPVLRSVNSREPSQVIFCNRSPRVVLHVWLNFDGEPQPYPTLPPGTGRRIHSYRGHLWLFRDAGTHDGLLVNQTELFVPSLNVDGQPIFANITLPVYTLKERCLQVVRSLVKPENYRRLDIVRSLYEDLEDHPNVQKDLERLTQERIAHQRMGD
Kind of test: biotinylated peptide capture on streptavidin beads.
Description: (§1) The 19:WT polypeptide was either incubated with cell extract before the binding assay or was untreated.

Test [3] addresses T2, mutant (Pro86His) pVHL. Description: biotinylated peptide, after cell extract, capture on streptavidin beads.
Description: as §1
The target of test [4] is T3, C. elegans HIF P621G mutant (C. elegans, UniProt G5EGD2 1-719).
T3 construct: also called ceHIF Pro621-Gly; pcDNA1cehif.P621G
T3 sequence: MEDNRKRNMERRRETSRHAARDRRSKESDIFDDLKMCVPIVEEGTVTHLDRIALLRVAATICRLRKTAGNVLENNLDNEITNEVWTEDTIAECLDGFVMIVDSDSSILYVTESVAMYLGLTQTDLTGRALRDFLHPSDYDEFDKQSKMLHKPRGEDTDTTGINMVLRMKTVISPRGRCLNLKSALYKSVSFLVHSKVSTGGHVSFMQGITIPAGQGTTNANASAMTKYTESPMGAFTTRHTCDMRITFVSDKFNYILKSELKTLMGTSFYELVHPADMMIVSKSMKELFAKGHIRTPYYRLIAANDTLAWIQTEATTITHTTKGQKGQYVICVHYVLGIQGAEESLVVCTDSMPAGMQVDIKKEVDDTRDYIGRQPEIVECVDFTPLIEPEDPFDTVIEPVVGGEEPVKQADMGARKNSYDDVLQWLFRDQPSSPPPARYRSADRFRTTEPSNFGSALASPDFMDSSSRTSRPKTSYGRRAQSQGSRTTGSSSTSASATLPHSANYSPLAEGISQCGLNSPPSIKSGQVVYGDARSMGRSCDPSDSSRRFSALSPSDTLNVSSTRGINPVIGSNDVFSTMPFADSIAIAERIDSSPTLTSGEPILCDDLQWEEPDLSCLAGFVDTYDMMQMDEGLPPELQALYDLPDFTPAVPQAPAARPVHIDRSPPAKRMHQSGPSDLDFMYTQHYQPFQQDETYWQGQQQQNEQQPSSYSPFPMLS
Description: anti-HA co-IP of IVTT products.
Description: (§2) For interaction assays 1 μl of each programmed lysate was mixed in EBC buffer at 4° C. for 1 hr before anti-HA immunoprecipitation as described in Cockman et al. Pretreatment of ceHIF with worm extract was for 30 min at 25° C. with 10 μI of extract derived by hypotonic extraction of a worm homogenate in 20 mM Tris pH7.5, 5 mMKCl, 1.5 MgCl2, 1 mMDTT.

The target in test [5] is T4, C. elegans HIF-α homologue, wild type (C. elegans, UniProt G5EGD2 1-719).
T4 construct: 35S-labelled reticulocyte IVTT from pcDNA1cehif; also called ceHIF; HIF-1 (C. elegans)
T4 sequence: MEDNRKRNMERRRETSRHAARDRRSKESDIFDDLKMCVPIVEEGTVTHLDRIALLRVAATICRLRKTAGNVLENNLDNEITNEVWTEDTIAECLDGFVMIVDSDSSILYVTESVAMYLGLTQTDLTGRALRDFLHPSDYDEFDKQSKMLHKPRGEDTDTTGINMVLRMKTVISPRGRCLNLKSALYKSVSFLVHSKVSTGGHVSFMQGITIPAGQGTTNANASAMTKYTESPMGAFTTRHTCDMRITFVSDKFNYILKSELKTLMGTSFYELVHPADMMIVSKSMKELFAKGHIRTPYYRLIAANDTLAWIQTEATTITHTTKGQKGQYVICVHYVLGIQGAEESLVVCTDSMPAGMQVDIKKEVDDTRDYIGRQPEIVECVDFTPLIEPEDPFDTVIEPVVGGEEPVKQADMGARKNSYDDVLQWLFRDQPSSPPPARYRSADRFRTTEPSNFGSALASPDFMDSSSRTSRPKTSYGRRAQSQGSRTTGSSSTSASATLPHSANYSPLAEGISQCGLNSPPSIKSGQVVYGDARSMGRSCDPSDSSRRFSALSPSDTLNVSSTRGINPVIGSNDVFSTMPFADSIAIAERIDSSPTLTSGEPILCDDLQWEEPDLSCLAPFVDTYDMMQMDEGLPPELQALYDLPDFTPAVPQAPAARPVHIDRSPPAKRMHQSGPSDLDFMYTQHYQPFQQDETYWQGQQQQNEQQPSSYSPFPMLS
Description: anti-HA co-IP of reticulocyte IVTTs, ceHIF pre-treated with worm extract.
Description: as §2

T1 sequence (P40337 whole entry, one chain of several): as the sequence (P40337 whole entry P86H) above, with H86P counted along it

B1: tat-NODD proline mutant (HIF-1α 343-417/P402A) (other)
chain: SGIIQHDLIFSLQQTECVLKPVESSDMKMTQLFTKVESEDTSSLFDKLKKEPDALTLLAAAAGDTIISLDFGSND
For the molecule B1, the binding result in test [1] was “no binding”.

B2: synthetic polypeptide of HIF-1α residues 556-574 containing a trans-4-hydroxy-S-proline residue at position 564 (peptide)
peptide: DLDLEMLA[Hyp]YIPMDDDFQL
modifications: also: biotinylated version used in pVHL capture assays
notes: also called 19:Pro564Hyp; B19Hyp
Turning to B2, the binding result in the test with mutant (Pro86His) pVHL [2] is listed as “no binding”.

B3: tat-CODD proline mutant (HIF-1α 549-582/P564G) (other)
chain: PFSTQDTDLDLEMLAGYIPMDDDFQLRSFDQLSP
Turning to B3, in test [1], the binding result was “no binding”.

B4: synthetic polypeptide of HIF-1α residues 556-574, unmodified (peptide)
peptide: DLDLEMLAPYIPMDDDFQL
modifications: also: biotinylated version used in pVHL capture assays
notes: also called 19:WT; 19 WT
In the case of B4, the binding result with mutant (Pro86His) pVHL [3] is “no binding”.

B5: c-terminal HA tagged ceVHL (other, not shown: small tags and cut ends)
chain: MSDGSMDDDGRLFPDLGSSTHDNREIRVRFLNRCAYPVDVFWLNPSKQPTKYGTLAQKKYLDIKTFKDHPWVARRSFDGCKVLVNEKEVFWPEPAPRMNLIVRNHCVITMKVQSLREIAGRSFLRHNPTEVPNKIKGLPRELQFEVKHFLDRKQEYSEIVCRSIPPPGPQRPQQ
notes: also called ceVHL-HA
With B5, the binding result was “no binding” in test [4] and “binds” in test [5].
